Measured values as given in publication PMC2386467.

Each sequence was assayed against Rap2.6 (Arabidopsis thaliana) (UniProt Q7G1L2) (assay: EMSA). Details: EMSA: 2.5 ug protein, 20 ng DNA, 0.5x TBE, 20 min room temperature, 6-7% native PAGE, anti-His blot; affinity assay: 2 ug protein, 100 pmol F5, 0.5x TBE, 10 min.
Sequence of Rap2.6 (Arabidopsis thaliana) (Q7G1L2 whole entry): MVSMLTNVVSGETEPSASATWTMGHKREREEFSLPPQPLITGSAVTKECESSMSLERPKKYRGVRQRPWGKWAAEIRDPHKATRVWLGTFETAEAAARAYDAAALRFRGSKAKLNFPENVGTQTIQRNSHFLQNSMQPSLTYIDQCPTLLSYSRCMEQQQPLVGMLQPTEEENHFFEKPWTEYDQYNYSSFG

binding, no binding:
AAACCATGGCATGCATAAGAGTCTTGAGCATAATAATGAAACCTGGATTTCCCGGA (double strand) [F1]
AAACCATGGCATGCATAAGAGTCTTGAGCATAATAATGAAACCTGGATTTCCCGGAATAAACAATACATGGAATGTGGGATTCTCAGCTTGAATTTCCATCATCTCCGTCATC (double strand) [F2]
CTCCGGTCACGCGATTCAACTTATATCTTCTCTCAGAACTGTCAACACTTGAAAGGAGAAGATCGAGAGAATTAATGAGACAACAGAGAAACCACTAAAAATCAAAACTTTGCAAAATAAGTGAAGAAGCCTTTTAAAGTAAACCAAGTGAAGAGAG (double strand) [F5]
TCTCCGTCATCGAACTTTGATCACAAATACAAAAAACAAAACAAAAAGTGTAACTATAGTCAAAGAAATTAGAAAATTTCGTAAAAGATTAATGTAACAATACCCAGAAACTCTGC (double strand) [F3]
